Paper PMC5228031, “CDK4/6-dependent activation of DUB3 regulates cancer metastasis through SNAIL1” (Nature Communications, 2017)

Molecular target: T1, His-DUB3 (UniProt Q6R6M4 1-530)
T1 construct: cloned into PET28A; source: purified recombinant
T1 sequence (looked up): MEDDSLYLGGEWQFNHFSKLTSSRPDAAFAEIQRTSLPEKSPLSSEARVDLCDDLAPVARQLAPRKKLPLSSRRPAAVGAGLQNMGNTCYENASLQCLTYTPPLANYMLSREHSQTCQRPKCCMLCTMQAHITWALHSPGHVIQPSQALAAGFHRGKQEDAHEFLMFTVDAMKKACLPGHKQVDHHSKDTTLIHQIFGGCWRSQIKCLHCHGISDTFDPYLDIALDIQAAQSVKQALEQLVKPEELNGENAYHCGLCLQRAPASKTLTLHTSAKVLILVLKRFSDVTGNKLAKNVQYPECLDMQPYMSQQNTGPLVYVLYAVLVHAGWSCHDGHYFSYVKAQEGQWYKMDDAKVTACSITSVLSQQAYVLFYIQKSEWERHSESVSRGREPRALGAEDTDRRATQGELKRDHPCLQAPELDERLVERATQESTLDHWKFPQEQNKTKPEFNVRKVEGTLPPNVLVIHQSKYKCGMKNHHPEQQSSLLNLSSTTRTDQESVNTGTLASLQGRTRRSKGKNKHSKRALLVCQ
Assay: pull-down; purified recombinant GST or GST fusion protein and His-tagged protein incubated in vitro
Settings: both partners purified

- binding result: binds
B1: GST-CDK4 (enzyme, UniProt P11802 1-303, looked up)
chain: MATSRYEPVAEIGVGAYGTVYKARDPHSGHFVALKSVRVPNGGGGGGGLPISTVREVALLRRLEAFEHPNVVRLMDVCATSRTDREIKVTLVFEHVDQDLRTYLDKAPPPGLPAETIKDLMRQFLRGLDFLHANCIVHRDLKPENILVTSGGTVKLADFGLARIYSYQMALTPVVVTLWYRAPEVLLQSTYATPVDMWSVGCIFAEMFRRKPLFCGNSEADQLGKIFDLIGLPPEDDWPRDVSLPRGAFPPRGPRPVQSVVPEMEESGAQLLLEMLTFNPHKRISAFRALQHSYLHKDEGNPE
notes: also called CDK4/6; source: purified recombinant
